The RNAGym collection of RNA variant scans (doi:10.1021/acssynbio.7b00057)

B1: Pistol ribozyme (parent)
chain: GGGUCGUUGUUCCAUAAUCGCGUGGAUAUGGCACGCAAGUUUCUACCGGGCACCGUAAAUGUCCGACUGGAGCCGUUCGGGCGGCUAUAAACAGACCUCAGGCCCGAAGCGUGGCGGCACCUGCCGCCGGUGGUAAAAAAGAUCGGAAGAGCACACGUCU

Variants of: B1
Assay: aptazyme ON/OFF ratio, guanine; higher = stronger switching; co-transcriptional cleavage with and without guanine

In order of falling “aptazyme ON/OFF ratio” value:
1. U7C U8A U10C C12U  3.73
2. U7G U8A G9A  2.45
3. U7G U10A U11A  2.39
4. U7G U8C G9U U10C C12A  2.08
5. U7G G9C U11A C13U  1.62
6. U8C G9C U10A  1.51
7. U7A U8G G9C C13A  1.47
8. U7C U8G U10A C13U  1.46
9. U7A U8A G9U U10A U11G C12U  1.46
10. U7C U8C G9A U10C U11A C13U  1.45
11. U8C G9A U10A U11G  1.45
12. U7G U8G G9U C13A  1.44
13. U8C U10A U11G C12G C13G  1.39
14. U7G U8A U10C C12A C13A  1.39
15. U7A U8G G9U U11C C13U  1.38
16. U7G U8A U10G U11A C12U C13G  1.37
17. U7A U8G G9C C12G C13A  1.36
18. G9U U10C U11A C12U C13G  1.35
19. U7G U8C G9A U10C U11A C12A  1.33
20. U7A U8G U11G C12A C13G  1.33
21. U7A U8G G9A U10A U11C C12A C13A  1.32
22. U7C U8G G9A U10A U11C C12G C13A  1.32
23. U7A U10A C12A  1.31
24. U7C U8G G9A U10A C12G C13U  1.31
25. U7G U8G G9C U10C U11A C12A  1.3
26. U7A G9A U10A C12A  1.3
27. U7G U8G U10G U11C C12A C13G  1.3
28. U7G U8C U10A U11G  1.29
29. U8A U10G C12G  1.29
30. U7A U8C U11C C12U C13U  1.29
31. U7G U8A U10C U11G C12U C13G  1.29
32. U7C U10C C12U C13G  1.28
33. U7G U8C U10C U11G  1.27
34. U7A U8C G9U C12A C13U  1.27
35. U7G G9C U10G U11C C12U C13G  1.26
36. U7G U8A U10A C12A  1.26
37. U7G U8A U11A C12U C13G  1.26
38. U7C U8G U10G U11G C12U C13A  1.25
39. U7G U8C G9U U10G U11G C12G C13U  1.25
40. U8G G9A U10A C13A  1.25
41. U7G U8C G9U U10G U11A C12G C13U  1.25
42. U7C U10C U11C C12U C13A  1.25
43. U7A U8G U10A U11A C12U C13G  1.25
44. U7C G9A U10G U11C C13A  1.24
45. U7G U8C U10C U11G C13A  1.23
46. U7C U8G G9C U11G C12U  1.23
47. U7A U8A G9U U10G C12G C13U  1.23
48. U8G U10C U11G C12G  1.23
49. U7A U8G U10G U11C C12G C13A  1.22
50. U7G U10A C12U C13G  1.22
51. U7A U8C G9U C12U C13A  1.22
52. U7A U8C G9A U10C U11A C12G  1.21
53. U7G U10G U11A  1.21
54. U7C G9C U11G C12U C13U  1.21
55. U7A G9U U10G U11C C12A  1.21
56. U8C G9U U10A U11C C12G  1.21
57. U7C U8C G9U U10A U11A C12G  1.2
58. U7A U8A U10C U11G  1.2
59. U7C U8C G9U U10A C12U C13U  1.19
60. U7A U8C G9A U10C U11A C12A  1.19
61. G9C U10A U11G C12G C13A  1.19
62. U7A U8G U10C U11C C12G C13U  1.19
63. U7C G9U U10A U11C C12G C13G  1.19
64. U7C U8G G9C U11A C12U C13A  1.19
65. U8C G9C U10G C12G  1.19
66. U7C U8A G9A U11G C12A C13A  1.19
67. U7C U8G G9C U10A U11G C12U C13U  1.18
68. U7C U8A G9A U10G U11A C12A C13A  1.18
69. U8G G9U U10G U11G C12U C13U  1.18
70. U7A U8G G9C U10C U11A C12A C13U  1.18
71. U7G U8A G9A U11C C12U  1.18
72. U7G U8C G9C U10A U11C  1.18
73. U8A G9A U10C C12A C13U  1.18
74. U7G U8C G9U U10A U11C C13U  1.18
75. U7A U8A G9A C12U C13U  1.17
76. U7A U8G U10C U11C C12U C13U  1.17
77. U7A U8G G9U U10A U11G C12U C13G  1.16
78. U7C U8A G9C U11A C12U C13A  1.16
79. U7C U8A G9A U10A U11A C13A  1.16
80. U7C U8A G9A U10G U11A C12G  1.16
81. U7G G9A U10G U11G C12U  1.16
82. U8C G9C U11A C12G C13G  1.15
83. U8A G9A U10A U11C C12U C13U  1.15
84. U7C U8A U10A C12A C13U  1.15
85. U7C U8A G9A U10A U11C C12G C13A  1.14
86. U7C U8G G9C U10A U11A C12G  1.14
87. U8A G9C U10G U11C C12G  1.14
88. U7C U8A G9A U10G U11G C12U C13G  1.14
89. U7A U8A G9A U10A U11C C12U C13U  1.14
90. U7A U8A G9U U10A U11C C12A C13U  1.14
91. U8G G9A U10C U11A C12G  1.14
92. U7C U8C G9C U10G U11A C13A  1.14
93. U7C G9C U10C U11G C12G  1.14
94. U7C U8C G9C U11A C12G  1.14
95. U7C U8A U10G U11C C12G C13G  1.14
96. U7A U8G G9A U11C C12A C13A  1.14
97. U7C U8G U10G U11A C13G  1.13
98. U7C U8C U10G C12G C13U  1.13
99. U8C G9C U10G U11G C12U C13G  1.13
100. U7G U8G G9U U10G U11C C12A  1.13
101. U7A G9C U10A U11A C12A C13A  1.13
102. U7C U8C G9A U10A U11G C12G C13A  1.13
103. U7G U8C G9A U10A U11C C12A C13U  1.13
104. U7C U8A G9U U11C C12A  1.13
105. U7C G9C U10G U11C C12G C13G  1.13
106. U7A U8C G9U U10A U11G C12G  1.12
107. U7A U8C G9A U10C C13U  1.12
108. U7C U8G U10A U11G C12A C13U  1.12
109. U8C G9U U10C U11G C12G  1.12
110. U7G U10C U11G C12A  1.12
111. U7A U8C G9U U10G U11G C12A C13A  1.12
112. U7G U8C G9A U11A C12A C13U  1.11
113. U7G G9A U11C C12G C13A  1.11
114. U7C U8A G9C U10C U11G C12G C13G  1.11
115. U7G G9U U10G U11G C12A C13A  1.11
116. U7G U8C G9A U10G U11A C12A C13U  1.11
117. U7A U8A U11G C12G C13A  1.1
118. U7G G9C U10G U11G C12A C13A  1.1
119. U7G U8C G9C U10A U11G C12G C13U  1.1
120. U7C U8G U10A U11A C12A C13A  1.1
121. U7G U10C U11C C12A  1.1
122. U7A G9U U10A C12A C13A  1.1
123. U7G U10G U11G C12G C13A  1.1
124. U7C U8A G9C U10A U11G C12G C13A  1.1
125. U8G U10G U11G C12G C13G  1.1
126. U7A U8C G9C U11A C12G  1.09
127. U7C U8A U11A C12G  1.09
128. U7G U8G G9U U10A C12U C13G  1.09
129. U7C U8G G9A U10C C12A C13G  1.09
130. U7C U8A U11A C12G C13A  1.09
131. U7C U8G G9A U10A U11C C12U C13U  1.08
132. G9C U10C U11G C13G  1.08
133. U8C U10C U11G C12G C13U  1.08
134. U7A U8A G9A U10C C12G C13U  1.08
135. U7A G9U U10G U11A C13G  1.08
136. G9C U10G U11G C12U C13G  1.08
137. U7G U8A G9U U10A U11C C12U C13A  1.07
138. U7G U8C U10C U11G C12G C13U  1.07
139. G9A U10A U11G C12A C13A  1.07
140. U7C G9C U10A C12G C13A  1.07
141. U7C G9C U11A C12G C13G  1.07
142. U7A U8A U10A U11G C12A C13G  1.07
143. U8G G9C U10A C13G  1.06
144. U7C U8C G9A U10G C12A C13U  1.06
145. U7C U8G G9U U10A U11G C12A C13U  1.06
146. U8A G9C U10C C12U  1.06
147. U7G G9A U10A U11C C13U  1.06
148. U8A G9C U10G U11C  1.05
149. U7A U8A G9C U10C U11C C12A  1.05
150. U7C G9U U11C C13U  1.05
151. U7A U8A G9C U10C C12G C13G  1.05
152. U7G U8A G9C U10A C12U C13U  1.05
153. U7C G9C U10C C12U C13A  1.04
154. U8A U10A U11C C13U  1.04
155. U7G U8A G9C U11A C12G C13A  1.04
156. U7A U8C G9U U10G U11A C13A  1.04
157. U8C G9A U11A C13G  1.04
158. U7A U8G G9C U10G U11C C13U  1.04
159. U7G U8C G9A U10G U11A C13G  1.04
160. U8C G9U C12U C13G  1.04
161. U7C U8G G9U U10C U11C C13U  1.03
162. U7G U8A G9C U10C U11C C12U  1.03
163. U8A G9A U10A U11G C12A C13A  1.03
164. U7A U8C G9U C13G  1.03
165. U8G U10A U11C C12U  1.03
166. U7C G9C U11A C12U C13A  1.02
167. U7G U8A C13U  0.972
